Results: US20230357348A1 (AstraZeneca / MedImmune, published 2023)
Starred links: 1 amine or outer side, 2 acyl side, 3 side chain; linkers in the order of their positions; H or OH if unused. Non-standard residues stand in square brackets, D forms with d. Groups on a side chain read outwards from the residue. Primed or numbered codes have the meaning given here. No end group written: not given here. *: point of attachment. C20 diacid = O=C(O)CCCCCCCCCCCCCCCCCCC(=O)*; C18 diacid = O=C(O)CCCCCCCCCCCCCCCCC(=O)*; γGlu = O=C(O)[C@H](CCC(=O)[*:2])N[*:1]; Palmitoyl = CCCCCCCCCCCCCCCC(=O)*; αMeF = C[C@](N)(Cc1ccccc1)C(=O)O; Myristoyl = CCCCCCCCCCCCCC(=O)*; PEG2′ = polyethylene glycol 2; AEEA = NCCOCCOCC(=O)O; Aib = CC(C)(N)C(=O)O

B1: Peptide 14 (peptide)
peptide: H[Aib]HGS[αMeF]TSDVSK[αMeF]LDSK([AEEA-AEEA-γGlu-γGlu-C20 diacid])AARD[αMeF]VQ[Aib]IANT-NH2
modifications: N-terminus assumed
SMILES: CC[C@H](C)[C@H](NC(=O)C(C)(C)NC(=O)[C@H](CCC(N)=O)NC(=O)[C@@H](NC(=O)[C@](C)(Cc1ccccc1)NC(=O)[C@H](CC(=O)O)NC(=O)[C@H](CCCNC(=N)N)NC(=O)[C@H](C)NC(=O)[C@H](C)NC(=O)[C@H](CCCCNC(=O)COCCOCCNC(=O)COCCOCCNC(=O)CC[C@H](NC(=O)CC[C@H](NC(=O)CCCCCCCCCCCCCCCCCCC(=O)O)C(=O)O)C(=O)O)NC(=O)[C@H](CO)NC(=O)[C@H](CC(=O)O)NC(=O)[C@H](CC(C)C)NC(=O)[C@](C)(Cc1ccccc1)NC(=O)[C@H](CCCCN)NC(=O)[C@H](CO)NC(=O)[C@@H](NC(=O)[C@H](CC(=O)O)NC(=O)[C@H](CO)NC(=O)[C@@H](NC(=O)[C@](C)(Cc1ccccc1)NC(=O)[C@H](CO)NC(=O)CNC(=O)[C@H](Cc1c[nH]cn1)NC(=O)C(C)(C)NC(=O)[C@@H](N)Cc1c[nH]cn1)[C@@H](C)O)C(C)C)C(C)C)C(=O)N[C@@H](C)C(=O)N[C@@H](CC(N)=O)C(=O)N[C@H](C(N)=O)[C@@H](C)O
B2: Peptide 128 (peptide)
peptide: H[Aib]QGS[αMeF]TSDVSKILDSK([PEG2′-PEG2′-γGlu-Palmitoyl])AAQD[αMeF]VQ[Aib]IINT-NH2
B3: Peptide 129 (peptide)
peptide: H[Aib]QGS[αMeF]TSDVSKILDSK([PEG2′-PEG2′-γGlu-Myristoyl])AAQD[αMeF]VQ[Aib]IINT-NH2
B4: Peptide 1 (peptide)
peptide: HSQGS[αMeF]TSDVSK[Aib]LDSK([AEEA-AEEA-γGlu-C18 diacid])AAQD[αMeF]VQ[Aib]IAN-NH2
modifications: N-terminus assumed
SMILES: CC[C@H](C)[C@H](NC(=O)C(C)(C)NC(=O)[C@H](CCC(N)=O)NC(=O)[C@@H](NC(=O)[C@](C)(Cc1ccccc1)NC(=O)[C@H](CC(=O)O)NC(=O)[C@H](CCC(N)=O)NC(=O)[C@H](C)NC(=O)[C@H](C)NC(=O)[C@H](CCCCNC(=O)COCCOCCNC(=O)COCCOCCNC(=O)CC[C@H](NC(=O)CCCCCCCCCCCCCCCCC(=O)O)C(=O)O)NC(=O)[C@H](CO)NC(=O)[C@H](CC(=O)O)NC(=O)[C@H](CC(C)C)NC(=O)C(C)(C)NC(=O)[C@H](CCCCN)NC(=O)[C@H](CO)NC(=O)[C@@H](NC(=O)[C@H](CC(=O)O)NC(=O)[C@H](CO)NC(=O)[C@@H](NC(=O)[C@](C)(Cc1ccccc1)NC(=O)[C@H](CO)NC(=O)CNC(=O)[C@H](CCC(N)=O)NC(=O)[C@H](CO)NC(=O)[C@@H](N)Cc1c[nH]cn1)[C@@H](C)O)C(C)C)C(C)C)C(=O)N[C@@H](C)C(=O)N[C@@H](CC(N)=O)C(N)=O
B5: Peptide 15 (peptide)
peptide: H[Aib]HGS[αMeF]TSDVSK[αMeF]LDSK([AEEA-AEEA-γGlu-C18 diacid])AARD[αMeF]VE[Aib]IANT-NH2
modifications: N-terminus assumed
SMILES: CC[C@H](C)[C@H](NC(=O)C(C)(C)NC(=O)[C@H](CCC(=O)O)NC(=O)[C@@H](NC(=O)[C@](C)(Cc1ccccc1)NC(=O)[C@H](CC(=O)O)NC(=O)[C@H](CCCNC(=N)N)NC(=O)[C@H](C)NC(=O)[C@H](C)NC(=O)[C@H](CCCCNC(=O)COCCOCCNC(=O)COCCOCCNC(=O)CC[C@H](NC(=O)CCCCCCCCCCCCCCCCC(=O)O)C(=O)O)NC(=O)[C@H](CO)NC(=O)[C@H](CC(=O)O)NC(=O)[C@H](CC(C)C)NC(=O)[C@](C)(Cc1ccccc1)NC(=O)[C@H](CCCCN)NC(=O)[C@H](CO)NC(=O)[C@@H](NC(=O)[C@H](CC(=O)O)NC(=O)[C@H](CO)NC(=O)[C@@H](NC(=O)[C@](C)(Cc1ccccc1)NC(=O)[C@H](CO)NC(=O)CNC(=O)[C@H](Cc1c[nH]cn1)NC(=O)C(C)(C)NC(=O)[C@@H](N)Cc1c[nH]cn1)[C@@H](C)O)C(C)C)C(C)C)C(=O)N[C@@H](C)C(=O)N[C@@H](CC(N)=O)C(=O)N[C@H](C(N)=O)[C@@H](C)O
B6: Peptide 16 (peptide)
peptide: H[Aib]HGS[αMeF]TSDVSK[αMeF]LDSK([AEEA-AEEA-γGlu-C18 diacid])AARD[αMeF]IA[Aib]IANT-NH2
modifications: N-terminus assumed
SMILES: CC[C@H](C)[C@H](NC(=O)C(C)(C)NC(=O)[C@H](C)NC(=O)[C@@H](NC(=O)[C@](C)(Cc1ccccc1)NC(=O)[C@H](CC(=O)O)NC(=O)[C@H](CCCNC(=N)N)NC(=O)[C@H](C)NC(=O)[C@H](C)NC(=O)[C@H](CCCCNC(=O)COCCOCCNC(=O)COCCOCCNC(=O)CC[C@H](NC(=O)CCCCCCCCCCCCCCCCC(=O)O)C(=O)O)NC(=O)[C@H](CO)NC(=O)[C@H](CC(=O)O)NC(=O)[C@H](CC(C)C)NC(=O)[C@](C)(Cc1ccccc1)NC(=O)[C@H](CCCCN)NC(=O)[C@H](CO)NC(=O)[C@@H](NC(=O)[C@H](CC(=O)O)NC(=O)[C@H](CO)NC(=O)[C@@H](NC(=O)[C@](C)(Cc1ccccc1)NC(=O)[C@H](CO)NC(=O)CNC(=O)[C@H](Cc1c[nH]cn1)NC(=O)C(C)(C)NC(=O)[C@@H](N)Cc1c[nH]cn1)[C@@H](C)O)C(C)C)[C@@H](C)CC)C(=O)N[C@@H](C)C(=O)N[C@@H](CC(N)=O)C(=O)N[C@H](C(N)=O)[C@@H](C)O
B7: Peptide 17 (peptide)
peptide: H[Aib]HGS[αMeF]TSDVSK[αMeF]LDSK([AEEA-AEEA-γGlu-C18 diacid])AARD[αMeF]VESIANT-NH2
modifications: N-terminus assumed
SMILES: CC[C@H](C)[C@H](NC(=O)[C@H](CO)NC(=O)[C@H](CCC(=O)O)NC(=O)[C@@H](NC(=O)[C@](C)(Cc1ccccc1)NC(=O)[C@H](CC(=O)O)NC(=O)[C@H](CCCNC(=N)N)NC(=O)[C@H](C)NC(=O)[C@H](C)NC(=O)[C@H](CCCCNC(=O)COCCOCCNC(=O)COCCOCCNC(=O)CC[C@H](NC(=O)CCCCCCCCCCCCCCCCC(=O)O)C(=O)O)NC(=O)[C@H](CO)NC(=O)[C@H](CC(=O)O)NC(=O)[C@H](CC(C)C)NC(=O)[C@](C)(Cc1ccccc1)NC(=O)[C@H](CCCCN)NC(=O)[C@H](CO)NC(=O)[C@@H](NC(=O)[C@H](CC(=O)O)NC(=O)[C@H](CO)NC(=O)[C@@H](NC(=O)[C@](C)(Cc1ccccc1)NC(=O)[C@H](CO)NC(=O)CNC(=O)[C@H](Cc1c[nH]cn1)NC(=O)C(C)(C)NC(=O)[C@@H](N)Cc1c[nH]cn1)[C@@H](C)O)C(C)C)C(C)C)C(=O)N[C@@H](C)C(=O)N[C@@H](CC(N)=O)C(=O)N[C@H](C(N)=O)[C@@H](C)O
B8: Peptide 18 (peptide)
peptide: H[Aib]HGS[αMeF]TSDVSK[αMeF]LDSK([AEEA-AEEA-γGlu-C18 diacid])AARD[αMeF]VQSIANT-NH2
modifications: N-terminus assumed
SMILES: CC[C@H](C)[C@H](NC(=O)[C@H](CO)NC(=O)[C@H](CCC(N)=O)NC(=O)[C@@H](NC(=O)[C@](C)(Cc1ccccc1)NC(=O)[C@H](CC(=O)O)NC(=O)[C@H](CCCNC(=N)N)NC(=O)[C@H](C)NC(=O)[C@H](C)NC(=O)[C@H](CCCCNC(=O)COCCOCCNC(=O)COCCOCCNC(=O)CC[C@H](NC(=O)CCCCCCCCCCCCCCCCC(=O)O)C(=O)O)NC(=O)[C@H](CO)NC(=O)[C@H](CC(=O)O)NC(=O)[C@H](CC(C)C)NC(=O)[C@](C)(Cc1ccccc1)NC(=O)[C@H](CCCCN)NC(=O)[C@H](CO)NC(=O)[C@@H](NC(=O)[C@H](CC(=O)O)NC(=O)[C@H](CO)NC(=O)[C@@H](NC(=O)[C@](C)(Cc1ccccc1)NC(=O)[C@H](CO)NC(=O)CNC(=O)[C@H](Cc1c[nH]cn1)NC(=O)C(C)(C)NC(=O)[C@@H](N)Cc1c[nH]cn1)[C@@H](C)O)C(C)C)C(C)C)C(=O)N[C@@H](C)C(=O)N[C@@H](CC(N)=O)C(=O)N[C@H](C(N)=O)[C@@H](C)O
B9: Peptide 19 (peptide)
peptide: H[Aib]HGS[αMeF]TSDVSK[αMeF]LDSK([AEEA-AEEA-γGlu-γGlu-C18 diacid])AARD[αMeF]VQ[Aib]IANT-NH2
modifications: N-terminus assumed
SMILES: CC[C@H](C)[C@H](NC(=O)C(C)(C)NC(=O)[C@H](CCC(N)=O)NC(=O)[C@@H](NC(=O)[C@](C)(Cc1ccccc1)NC(=O)[C@H](CC(=O)O)NC(=O)[C@H](CCCNC(=N)N)NC(=O)[C@H](C)NC(=O)[C@H](C)NC(=O)[C@H](CCCCNC(=O)COCCOCCNC(=O)COCCOCCNC(=O)CC[C@H](NC(=O)CC[C@H](NC(=O)CCCCCCCCCCCCCCCCC(=O)O)C(=O)O)C(=O)O)NC(=O)[C@H](CO)NC(=O)[C@H](CC(=O)O)NC(=O)[C@H](CC(C)C)NC(=O)[C@](C)(Cc1ccccc1)NC(=O)[C@H](CCCCN)NC(=O)[C@H](CO)NC(=O)[C@@H](NC(=O)[C@H](CC(=O)O)NC(=O)[C@H](CO)NC(=O)[C@@H](NC(=O)[C@](C)(Cc1ccccc1)NC(=O)[C@H](CO)NC(=O)CNC(=O)[C@H](Cc1c[nH]cn1)NC(=O)C(C)(C)NC(=O)[C@@H](N)Cc1c[nH]cn1)[C@@H](C)O)C(C)C)C(C)C)C(=O)N[C@@H](C)C(=O)N[C@@H](CC(N)=O)C(=O)N[C@H](C(N)=O)[C@@H](C)O

Assays:
[1] = molecular target: human GLP-1 receptor (hGLP-1R) (human, UniProt P43220 24-463); test: cell-based or functional assay
[2] = molecular target: human glucagon receptor (hGCGR) (human, UniProt P47871 26-477); test: cell-based or functional assay
human glucagon receptor (hGCGR), sequence (P47871 26-477): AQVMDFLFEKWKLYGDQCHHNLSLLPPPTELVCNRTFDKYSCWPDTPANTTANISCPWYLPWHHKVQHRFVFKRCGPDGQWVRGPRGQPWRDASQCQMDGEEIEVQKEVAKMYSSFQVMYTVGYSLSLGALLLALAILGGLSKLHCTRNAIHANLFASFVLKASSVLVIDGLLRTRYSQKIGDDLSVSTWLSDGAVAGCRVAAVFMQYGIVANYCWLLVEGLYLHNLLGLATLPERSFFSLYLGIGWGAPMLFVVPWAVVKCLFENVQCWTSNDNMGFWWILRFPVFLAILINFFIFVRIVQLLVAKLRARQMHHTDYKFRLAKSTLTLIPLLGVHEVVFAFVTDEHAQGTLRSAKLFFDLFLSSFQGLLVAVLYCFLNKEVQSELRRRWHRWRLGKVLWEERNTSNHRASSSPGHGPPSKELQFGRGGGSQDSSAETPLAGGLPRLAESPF

| Binder | hGLP-1R EC50 (pM) [1] [pM] | hGluc-R EC50 (pM) [2] [pM] |
| --- | --- | --- |
| B1 | 93.8 | 462 |
| B2 | 0.788 | 4.7 |
| B3 | 0.462 | 4.1 |
| B4 | 3200 | > 27100 |
| B5 | 33.1 | 61.4 |
| B6 | 33 | 105 |
| B7 | 45 | 135 |
| B8 | 20.5 | 122 |
| B9 | 38.3 | 133 |
